Measurements as given in US20110086029A1 (University of California, published 2011).

T1: murine N-Cadherin (murine, UniProt P15116 160-724, limits assumed)
T1 construct: The assay used to show cross-reactivity is not described
T1 sequence (looked up): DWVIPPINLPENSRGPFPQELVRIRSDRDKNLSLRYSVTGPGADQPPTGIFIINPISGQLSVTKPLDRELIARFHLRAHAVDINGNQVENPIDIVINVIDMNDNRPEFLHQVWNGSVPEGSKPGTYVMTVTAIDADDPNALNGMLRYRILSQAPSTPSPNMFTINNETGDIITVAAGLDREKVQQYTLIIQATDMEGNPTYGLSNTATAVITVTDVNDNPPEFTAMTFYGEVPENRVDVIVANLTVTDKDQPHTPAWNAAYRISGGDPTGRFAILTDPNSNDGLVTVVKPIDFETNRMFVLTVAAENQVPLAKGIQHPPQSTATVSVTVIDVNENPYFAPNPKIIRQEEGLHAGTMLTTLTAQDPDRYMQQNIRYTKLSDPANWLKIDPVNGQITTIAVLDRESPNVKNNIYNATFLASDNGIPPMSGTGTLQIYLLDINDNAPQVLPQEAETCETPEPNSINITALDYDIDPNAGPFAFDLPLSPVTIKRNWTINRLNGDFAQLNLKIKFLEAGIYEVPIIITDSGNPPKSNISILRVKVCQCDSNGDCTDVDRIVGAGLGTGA


Target: T1, murine N-Cadherin
Test: assay not described

Row | binding result | Binder
1 | binds | N-Cadherin antibody EC4 (monoclonal antibody produced by mouse hybridoma ATCC Accession No. PTA-9388) (antibody, V domains shown, Mouse hybridoma monoclonal antibody) VH: QVKLQQSGAELARPGASVKLSCKASGYTFTSYWMQWVKQRPGQGLEWIGAIYPGDGETTYTQKFKGKATLTADKSSSTAYMQLSSLASEDSAVYYCAKGDGYWAMDYWGQGTSVTVSS VL: DIVMTQTPLSLPVSLGDQASISCRSSQSLVHSNGNTYLHWYLQKPGQSPKLLIYKVSNRFSGVPDRFSGSGSGTDFTLKISRVEAEDLGVYFCSQSTHVPLTFGAGTKLELK
2 | binds | N-Cadherin antibody 1H7 (monoclonal antibody produced by mouse hybridoma ATCC Accession No. PTA-9387) (antibody, V domains shown, Mouse hybridoma monoclonal antibody) VH: QVQLQQSGAELVKPGASVKLSCKASGFTFTDYLIQWVKQRSGQGLEWIGWFYPGSGSIKYNEKFKDKATLTADKSSNTVYMEISRLTSEDSAVYFCARRGDWGGFFDYWGQGTTLTVSS VL: DIVLTQSPAIMSASLGERVTMTCTASSSVSSSYLHWYQQKPGSSPKLWIFSTSNLASGVPDRFSGSGSGTSYSLTINSMEAEDAATYYCHQYHRSLTFGAGTKLELK
